According to publication PMC516023 (2004):

B1: HIV-1 Vpr, wild type [HIV-1] / GST-fused di-W peptide WWSFKSV (GST-B4) (parent complex)
chain 1: MEQAPEDQGPQREPHNEWTLELLEELKNEAVRHFPRIWLHGLGQHIYETYGDTWAGVEAIIRILQQLLFIHFRIGCRHSRIGVTRQRRARNGASRS
chain 2: WWSFKSV

Variants of: B1
Assay: GST pull-down, autoradiography scanning; parent: 100; read off a plot

Row | Variant | percent of parent
1 | chain 1 I63K | ~80%
2 | chain 1 R80A | ~88%
3 | chain 1 E21K | ~7%
4 | chain 1 E25K | ~86%
5 | chain 1 R87A, chain 1 R88A | ~71%
6 | chain 1 F34I | ~80%
7 | chain 1 L23F | ~10%
8 | chain 1 A30F | ~6%
9 | chain 1 R62P | ~4%
